Residue numbers refer to the chain shown, from its start.

One data set has as its target T1, DrBphP (Deinococcus radiodurans, UniProt Q9RZA4).
T1 construct: gene bphP; full length (755 residues), C-terminal His6 tag, pET21b(+), E. coli BL21(DE3), assembled with biliverdin
T1 sequence (Q9RZA4 1-755): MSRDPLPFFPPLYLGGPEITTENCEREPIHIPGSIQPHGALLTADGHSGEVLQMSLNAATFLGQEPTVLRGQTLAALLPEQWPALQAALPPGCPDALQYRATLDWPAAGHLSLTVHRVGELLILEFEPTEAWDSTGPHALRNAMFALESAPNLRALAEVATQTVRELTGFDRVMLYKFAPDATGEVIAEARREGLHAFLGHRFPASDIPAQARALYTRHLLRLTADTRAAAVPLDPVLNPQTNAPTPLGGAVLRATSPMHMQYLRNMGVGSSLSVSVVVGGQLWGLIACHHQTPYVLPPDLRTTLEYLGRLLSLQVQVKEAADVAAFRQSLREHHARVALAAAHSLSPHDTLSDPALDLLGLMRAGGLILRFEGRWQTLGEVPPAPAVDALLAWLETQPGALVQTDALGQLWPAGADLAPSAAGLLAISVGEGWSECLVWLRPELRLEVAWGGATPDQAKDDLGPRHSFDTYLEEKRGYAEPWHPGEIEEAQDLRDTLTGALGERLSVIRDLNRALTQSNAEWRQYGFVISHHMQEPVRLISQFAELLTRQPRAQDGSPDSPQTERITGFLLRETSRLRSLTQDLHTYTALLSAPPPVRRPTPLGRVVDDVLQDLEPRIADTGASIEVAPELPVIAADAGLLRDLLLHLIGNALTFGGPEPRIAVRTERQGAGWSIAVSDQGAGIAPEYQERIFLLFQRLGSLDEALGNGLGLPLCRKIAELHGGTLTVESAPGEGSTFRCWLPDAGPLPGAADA
Kind of data set: Phos-tag gel, dephosphorylation of phospho-DrRR with and without ATP. The data set is classed as biochemical. Particulars: 1 mM ATP, phospho-DrRR as substrate, 5 mM MgCl2, pH 7.8, 25 °C, dark or red light.

The next data set deals with T2, AtRR1 (Agrobacterium fabrum, UniProt Q7CY46).
T2 construct: gene Atu1989; REC-domain-only response regulator, His6 tag, pET21b(+) with N-terminal T7 tag, E. coli BL21(DE3)
T2 sequence (Q7CY46 1-151): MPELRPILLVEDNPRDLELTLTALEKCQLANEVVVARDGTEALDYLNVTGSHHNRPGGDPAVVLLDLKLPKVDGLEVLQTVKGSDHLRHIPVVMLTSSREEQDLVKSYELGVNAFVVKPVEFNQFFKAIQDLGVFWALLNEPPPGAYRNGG
Kind of data set: chemical phosphorylation, Phos-tag gel. Format: biochemical. The note with it: 50 mM acetyl phosphate, 5 mM MgCl2, pH 7.8, 37 °C, 30 min.

In data set [1] the target is T3, response regulator from Deinococcus radiodurans (DrRR) (Deinococcus radiodurans strain R1, UniProt Q9RZA5 1-149).
T3 chain: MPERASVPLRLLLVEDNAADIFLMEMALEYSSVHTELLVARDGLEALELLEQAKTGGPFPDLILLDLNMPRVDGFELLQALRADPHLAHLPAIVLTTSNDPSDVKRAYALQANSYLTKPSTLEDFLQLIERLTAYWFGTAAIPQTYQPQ
Kind of data set: ITC; Ca2+ buffer.

Data set [2] concerns the target T3, response regulator from Deinococcus …. Briefly: SPR; red light (R), kinetic. Background: SPR reads the build-up and loss of mass on a sensor chip optically.
Data set [3] has the same target. Kind of data set: ITC; Tris pH 8.0. On the technique in general: Isothermal titration calorimetry measures the heat released or taken up as one component is titrated into another.
Data set [4] shares this target. Briefly: SPR; red light (R), kinetic.
Data set [5] shares this target. Briefly: ITC; 1 mM AMP-PNP.
Data set [6] has the same target. Kind of data set: ITC; dark (D), 30 mM Tris/HCl, pH 8.0.
Data set [7] has the same target. Kind of data set: SPR; dark (D), kinetic.
Data set [8] shares this target. Briefly: SPR; dark (D), kinetic.
For data set [9], the target named is T4, bacteriophytochrome from Deinococcus radiodurans (DrBphP), wild type (Deinococcus radiodurans strain R1, UniProt Q9RZA4 1-755, biliverdin chromophore (molar excess of biliverdin hydrochloride added to the lysate; thioether linkage to the conserved cysteine within the PAS domain)).
T4 construct: Pr (dark or far-red) and Pfr (red light) states are told apart by the assay; source: E. coli BL21 (DE3), purified (NiNTA, SEC)
T4 sequence: T1 sequence (Q9RZA4 1-755)
Kind of data set: SPR; Biacore X; response regulator coupled (EDC/NHS) on a carboxymethyldextran chip, phytochrome flowed after red light (655 nm, Pfr); 20 mM HEPES, 300 mM NaCl, 5 mM MgCl2, 0.10% Tween20, pH 7.5; room temperature; steady-state fit. Particulars: both partners purified.

Data set [10] has as its target T4, bacteriophytochrome from Deinococcus …. Briefly: SPR; Biacore X; response regulator coupled (EDC/NHS) on a carboxymethyldextran chip, phytochrome flowed; dark (Pr, far-red 785 nm pre-illumination); 20 mM HEPES, 300 mM NaCl, 5 mM MgCl2, 0.10% Tween20, pH 7.5; room temperature; steady-state (Req) fit, 1:1 model. The note with it: both partners purified.
The target in data set [11] is DrBphP E536A variant (Deinococcus radiodurans strain R1, UniProt Q9RZA4 1-755, E536A, biliverdin chromophore (molar excess of biliverdin hydrochloride added to the lysate)). Kind of data set: ITC.
Data set [12] has as its target T4, bacteriophytochrome from Deinococcus …. Briefly: SPR; same sensorgrams as the dark steady-state SPR; 1:1 Langmuir kinetic fit of ka/kd; DrBphP 8-67 µM. Particulars: both partners purified.
For data set [13] the target is unchanged. Briefly: ITC; MicroCal PEAQ-ITC; BphP (30-50 µM) in the cell in the Pr state (785 nm), RR (750-800 µM) in the syringe; 25 °C, dark; Tris/HCl pH 7.8, 5 mM MgCl2, 4 mM 2-mercaptoethanol, 5% ethylene glycol; single-site fit; also run with AMP-PNP or Ca2+ added. The note with it: both partners purified.
The target in data set [14] is T5, DrBphP E536A variant (Deinococcus radiodurans strain R1, UniProt Q9RZA4 1-755, E536A, biliverdin chromophore (molar excess of biliverdin hydrochloride added to the lysate)).
T5 construct: source: E. coli BL21 (DE3), purified (NiNTA, SEC)
T5 sequence: T1 sequence (Q9RZA4 1-755) with E536A
The description is as above. The note with it: both partners purified.

Data set [15] concerns the molecule itself. Kind of data set: SEC; EGFP-labeled response regulator alone; Superdex-200 Increase 3.2/300; 25 mM Tris/HCl pH 7.8, 5 mM MgCl2, 4 mM 2-mercaptoethanol, 5% ethylene glycol; 24 µl at 5 mg/ml; plotted at 280 nm. On the technique in general: Size exclusion chromatography separates by hydrodynamic size, large species first.

As for `Nc1ncnc2c1ncn2[C@@H]1O[C@H](COP(=O)(O)OP(=O)(O)OP(=O)(O)O)[C@@H](O)[C@H]1O` [ATP], the “Phos-tag gel, dephosphorylation of phospho-DrRR with and without ATP” value at DrBphP is recorded as “the phosphatase activity in DrBphP depended on ATP addition”.

For `CC(=O)OP(=O)(O)O` [acetyl phosphate], the “chemical phosphorylation, Phos-tag gel” value on AtRR1 was “whereas AtRR1 responded to the treatment weakly”.

B1: bacteriophytochrome from Deinococcus radiodurans (DrBphP), wild type (enzyme)
chain: T1 sequence (Q9RZA4 1-755)
modifications: biliverdin chromophore (molar excess of biliverdin hydrochloride added to the lysate; thioether linkage to the conserved cysteine within the PAS domain)
On to B1, for which the Kd (usually the concentration at which binding is half-saturated) was 2.8 µM in [1]; 15.5 µM in [2]; 35 µM in [3]; approximately 11 µM in data set [5]; 35 µM in [6]; 6.2 µM in [8]. Further, the koff (as a rule, the first-order rate constant of dissociation) in data set [4] was determined as 0.0065 s⁻¹; in data set [7], 0.0046 s⁻¹.

B2: response regulator from Deinococcus radiodurans (DrRR) (natural protein)
chain: T3 chain
notes: consists only of a receiver (REC) domain; Forms dimers in the crystal (four monomers, two dimers in the asymmetric unit); also called Q9RZA5_DEIRA; source: E. coli BL21 (DE3), purified (NiNTA, SEC)
For B2, the Kd in data set [9] is 60 ± 7 µM; in data set [10] it was 43 ± 8 µM; with DrBphP E536A variant [11], 13 µM; in data set [12], approximately 10 µM; in data set [13], 8.1 µM. The binding result in the data set with DrBphP E536A variant [14] was “binds”.

B3: EGFP-labeled AtRR1 (natural protein)
chain: MPELRPILLVEDNPRDLELTLTALEKCQLANEVVVARDGTEALDYLNVTGSHHNRPGGDPAVVLLDLKLPKVDGLEVLQTVKGSDHLRHIPVVMLTSSREEQDLVKSYELGVNAFVVKPVEFNQFFKAIQDLGVFWALLNE
notes: also called EGFP-AtRR1; source: E. coli BL21 (DE3), purified (NiNTA, SEC)
With B3, the stoichiometry N – broadly, the number of molecules, sites or subunits per partner or assembly – in data set [15] was 2.

The record behind these values is article PMC8292422 (Nature Communications, 2021).
